Drawing on article PMC2757237, this text covers percent of the total ALV in the sample that was precipitated and percent of the protein in the sample that was precipitated for three substances.

Assay in all cases: co-IP
In test [1] the target is PfGAPM1-HA (P. falciparum) (UniProt Q8IE80).
In test [2] the target is PfGAPM2-GFP (P. falciparum) (UniProt Q8IFN1).
Test [3] deals with PfGAPM3-HA (P. falciparum).

Bounds are passed on as bounds.

Regarding PfALV4 (natural protein), the percent of the total ALV in the sample that was precipitated in test [1] was 17%; in test [2], 26%; in test [3], 16%.

For PfGAP50 (natural protein), the percent of the protein in the sample that was precipitated in test [1], in test [2] and in test [3] was < 10% each time.

Consider “PfGAP45 (from UniProt Q8I5I8 1-204) (natural protein)”, for which, in test [3], the percent of the protein in the sample that was precipitated is < 10%.
